Reference: paper PMC2119998

How the values were obtained:
Experiment in all cases: radioligand binding
[1] = molecular target: Ng-CAM (chicken) (chicken) (UniProt Q03696)
[2] = molecular target: Ng-CAM and N-CAM (physiological salt)
laminin = molecular target: laminin

Sequence of neurocan (P55067 23-1257): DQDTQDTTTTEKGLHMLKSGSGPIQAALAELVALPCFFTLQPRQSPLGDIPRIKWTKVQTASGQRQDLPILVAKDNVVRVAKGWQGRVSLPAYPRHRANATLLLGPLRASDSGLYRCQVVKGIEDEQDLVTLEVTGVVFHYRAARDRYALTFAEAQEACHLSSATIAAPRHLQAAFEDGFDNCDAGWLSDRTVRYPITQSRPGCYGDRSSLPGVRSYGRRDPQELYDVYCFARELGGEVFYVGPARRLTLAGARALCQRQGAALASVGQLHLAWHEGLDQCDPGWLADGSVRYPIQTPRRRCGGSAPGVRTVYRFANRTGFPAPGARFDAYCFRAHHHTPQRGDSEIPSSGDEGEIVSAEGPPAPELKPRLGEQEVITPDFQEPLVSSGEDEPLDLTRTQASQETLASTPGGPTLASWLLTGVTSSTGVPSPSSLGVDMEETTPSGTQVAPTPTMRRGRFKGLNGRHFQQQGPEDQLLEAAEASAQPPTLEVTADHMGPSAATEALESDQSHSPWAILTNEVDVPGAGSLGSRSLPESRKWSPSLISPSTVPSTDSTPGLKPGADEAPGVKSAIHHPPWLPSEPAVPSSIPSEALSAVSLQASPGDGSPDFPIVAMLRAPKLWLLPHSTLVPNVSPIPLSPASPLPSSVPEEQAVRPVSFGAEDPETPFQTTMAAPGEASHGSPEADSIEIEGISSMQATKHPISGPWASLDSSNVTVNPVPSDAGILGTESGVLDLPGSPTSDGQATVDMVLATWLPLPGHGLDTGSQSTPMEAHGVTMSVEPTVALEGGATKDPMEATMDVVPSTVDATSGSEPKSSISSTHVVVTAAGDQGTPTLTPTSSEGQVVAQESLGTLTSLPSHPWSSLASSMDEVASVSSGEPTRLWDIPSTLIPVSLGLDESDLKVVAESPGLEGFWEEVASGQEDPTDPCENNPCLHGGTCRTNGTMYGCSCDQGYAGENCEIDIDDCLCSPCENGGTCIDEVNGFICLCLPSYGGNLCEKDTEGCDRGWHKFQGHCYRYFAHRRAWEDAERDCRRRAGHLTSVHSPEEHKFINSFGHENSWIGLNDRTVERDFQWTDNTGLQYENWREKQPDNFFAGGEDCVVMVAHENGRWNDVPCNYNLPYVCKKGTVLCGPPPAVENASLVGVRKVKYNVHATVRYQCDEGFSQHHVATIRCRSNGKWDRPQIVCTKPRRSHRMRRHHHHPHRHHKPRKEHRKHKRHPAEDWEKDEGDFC
Sequence of Ng-CAM (chicken) (chicken) (Q03696 21-1266): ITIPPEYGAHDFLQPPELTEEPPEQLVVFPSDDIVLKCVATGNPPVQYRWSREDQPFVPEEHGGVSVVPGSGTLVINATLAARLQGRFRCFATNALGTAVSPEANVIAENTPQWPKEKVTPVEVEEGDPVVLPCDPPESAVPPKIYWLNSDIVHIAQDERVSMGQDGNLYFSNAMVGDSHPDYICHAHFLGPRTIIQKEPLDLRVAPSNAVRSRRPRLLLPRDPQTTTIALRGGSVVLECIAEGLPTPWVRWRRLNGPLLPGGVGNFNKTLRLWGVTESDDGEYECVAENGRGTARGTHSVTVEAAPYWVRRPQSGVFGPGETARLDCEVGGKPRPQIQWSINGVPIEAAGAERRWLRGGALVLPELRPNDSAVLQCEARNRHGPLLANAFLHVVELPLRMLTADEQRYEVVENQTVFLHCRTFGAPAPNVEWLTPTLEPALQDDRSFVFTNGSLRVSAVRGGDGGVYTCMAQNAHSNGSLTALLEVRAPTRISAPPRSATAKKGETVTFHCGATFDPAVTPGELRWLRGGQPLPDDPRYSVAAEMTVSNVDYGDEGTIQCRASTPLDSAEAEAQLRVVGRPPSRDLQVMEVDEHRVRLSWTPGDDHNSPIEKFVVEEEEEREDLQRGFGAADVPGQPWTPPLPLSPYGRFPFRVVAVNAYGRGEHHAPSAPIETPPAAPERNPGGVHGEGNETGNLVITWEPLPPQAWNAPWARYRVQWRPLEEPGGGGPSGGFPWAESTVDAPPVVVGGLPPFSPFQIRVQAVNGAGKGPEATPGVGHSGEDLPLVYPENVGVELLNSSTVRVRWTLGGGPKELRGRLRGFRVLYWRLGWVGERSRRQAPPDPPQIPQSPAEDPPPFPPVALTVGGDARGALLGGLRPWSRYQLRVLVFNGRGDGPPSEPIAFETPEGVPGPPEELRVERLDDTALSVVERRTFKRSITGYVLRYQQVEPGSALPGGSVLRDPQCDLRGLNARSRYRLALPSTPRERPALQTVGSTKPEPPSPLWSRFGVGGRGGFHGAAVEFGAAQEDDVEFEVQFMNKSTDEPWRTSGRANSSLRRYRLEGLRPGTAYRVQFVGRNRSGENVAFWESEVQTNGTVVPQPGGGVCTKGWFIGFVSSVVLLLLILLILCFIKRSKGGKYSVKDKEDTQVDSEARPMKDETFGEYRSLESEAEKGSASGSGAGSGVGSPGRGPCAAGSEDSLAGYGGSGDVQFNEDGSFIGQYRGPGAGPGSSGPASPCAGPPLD

Row | Substance | Kd [1] | t1/2 of dissociation in excess buffer [1] | percent decrease of binding in isotonic against hypotonic buffer [2] | percent of total counts bound (laminin)
1 | neurocan-C (domain or fragment) | 5.3 nM | 4 h |  | 
2 | neurocan (from UniProt P55067 23-1257) (natural protein) |  |  | 35 to 60% | 9%
